Test results taken from patent US20230322953A1 (HARBOUR BIOMED SHANGHAI, published 2023).
Read-outs that look alike come from different tables or passages of the source.

Experiments:
[1] = target: T1, biotinylated human BCMA-Fc, Avitag recombinant protein (ACRO Biosystems, #BC7-H82F0) (human, UniProt Q02223 1-54, biotinylated (Avitag)); assay: BLI (Octet Red96e), biotinylated BCMA-Fc on SA sensor, 1:1 global fitting;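 further: Anti-BCMA antibodies analysed as binding partners of the captured BCMA antigen, with reference signals removed by double referencing before kinetic fitting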
T1 construct: extracellular domain; Bought protein; also called huBCMA.Fc; recombinant human BCMA-ECD-Fc
T1 sequence (looked up): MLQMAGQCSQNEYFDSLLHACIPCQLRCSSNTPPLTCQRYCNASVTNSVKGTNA

[2] = target: T2, human BCMA on NCI-H929 cells (ATCC, CRL-9068) (human, UniProt Q02223 1-184); assay: cell-based or functional assay
T2 sequence (looked up): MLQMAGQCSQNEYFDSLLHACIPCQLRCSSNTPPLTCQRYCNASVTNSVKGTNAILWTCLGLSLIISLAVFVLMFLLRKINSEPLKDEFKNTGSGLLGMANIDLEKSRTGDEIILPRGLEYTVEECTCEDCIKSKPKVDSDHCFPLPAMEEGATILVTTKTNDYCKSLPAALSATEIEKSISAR

[3] = target: T2, human BCMA on NCI-H929 cells (ATCC, …); assay: cell-based or functional assay; remark: listed apart in the source
[4] = target: T2, human BCMA on NCI-H929 cells (ATCC, …); assay: cell-based or functional assay; remark: listed apart in the source
[5] = target: T3, cynomolgus monkey BCMA (ACRO Biosystems, #BCA-C82F4) (cynomolgus monkey, UniProt A0A2K5UD97 1-53); assay: BLI (Octet Red96e), cyBCMA.Fc
T3 construct: Bought protein; also called cyBCMA.Fc
T3 sequence (A0A2K5UD97 entry or part of it): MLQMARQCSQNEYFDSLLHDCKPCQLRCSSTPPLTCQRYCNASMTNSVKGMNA

[6] = target: T4, human CD3 (TCR/CD3 complex) on human T cells (human, UniProt P07766 23-207); assay: flow cytometry (FACS) on human T cells, Experiment 3
T4 construct: whole, on cells
T4 sequence (P07766 23-207, one chain of several): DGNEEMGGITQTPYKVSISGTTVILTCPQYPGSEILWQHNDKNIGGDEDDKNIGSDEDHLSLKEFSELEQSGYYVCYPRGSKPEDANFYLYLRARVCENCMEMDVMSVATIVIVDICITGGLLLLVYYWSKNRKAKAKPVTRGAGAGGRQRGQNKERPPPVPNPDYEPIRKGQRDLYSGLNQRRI

[7] = target: T5, cynomolgus monkey CD3 (TCR/CD3 complex) on cynomolgus monkey T cells (cynomolgus monkey); assay: flow cytometry (FACS) on cynomolgus monkey T cells
T5 construct: whole, on cells
T5 sequence (Q95LI5 22-198, one chain of several): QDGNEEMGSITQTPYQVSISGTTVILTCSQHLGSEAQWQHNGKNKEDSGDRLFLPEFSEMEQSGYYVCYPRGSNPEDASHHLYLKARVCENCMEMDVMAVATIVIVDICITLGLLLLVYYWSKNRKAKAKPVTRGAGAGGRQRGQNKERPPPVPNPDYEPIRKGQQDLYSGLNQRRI

[8] = target: T2, human BCMA on NCI-H929 cells (ATCC, …); assay: cell-based or functional assay; remark: listed apart in the source

B1: PR002199, BCMA × CD3 bispecific antibody derived from WO2019133761A1 (bispecific antibody, human IgG1, kappa, L234A L235A)
chain 1: not shown
chain 2: EVQLVESGGGLVQPGRSLRLSCAASGFTFDDYAMHWVRQAPGKGLEWVSGISWNSGSIGYADSVKGRFTISRDNAKNSLYLQMNSLRAEDTALYYCAKDSRGYGDYRLGGAYWGQGTLVTVSSASTKGPSVFPLAPSSKSTSGGTAALGCLVKDYFPEPVTVSWNSGALTSGVHTFPAVLQSSGLYSLSSVVTVPSSSLGTQTYICNVNHKPSNTKVDKKVEPKSCDKTHTCPPCPAPEAAGGPSVFLFPPKPKDTLMISRTPEVTCVVVDVSHEDPEVKFNWYVDGVEVHNAKTKPREEQYNSTYRVVSVLTVLHQDWLNGKEYKCKVSNKALGAPIEKTISKAKGQPREPQVYTLPPCREEMTKNQVSLWCLVKGFYPSDIAVEWESNGQPENNYKTTPPVLDSDGSFFLYSKLTVDKSRWQQGNVFSCSVMHEALHNHYTQKSLSLSPGK
chain 3: EVQLLESGGGLVQPGGSLRLSCAASGFTVSSYGMSWVRQAPGKGPEWVSGIRGSDGSTYYADSVKGRFTISRDNSKNTLYLQMNSLRAEDTAVYYCAKQGENDGPFDHRGQGTLVTVSSGGGGSEVQLLESGGGLVQPGGSLRLSCAASGFTVSSYGMSWVRQAPGKGPEWVSGIRGSDGSTYYADSVKGRFTISRDNSKNTLYLQMNSLRAEDTAVYYCAKQGENDGPFDHRGQGTLVTVSSASEPKSSDKTHTCPPCPAPEAAGGPSVFLFPPKPKDTLMISRTPEVTCVVVDVSHEDPEVKFNWYVDGVEVHNAKTKPREEQYNSTYRVVSVLTVLHQDWLNGKEYKCKVSNKALGAPIEKTISKAKGQPREPQVCTLPPSREEMTKNQVSLSCAVKGFYPSDIAVEWESNGQPENNYKTTPPVLDSDGSFFLVSKLTVDKSRWQQGNVFSCSVMHEALHNHYTQKSLSLSPGK
notes: Three polypeptide chains; also called Positive control 2
Kd [1]: 0.0452 nM | koff [1]: 2.46e-05 s⁻¹ | kon [1]: 545000 M⁻¹ s⁻¹ | IFN-γ release, EC50 [2]: 0.261 nM | IFN-γ release, Maximum [2]: 658 pg/mL | IL-2 release, EC50 [2]: 0.312 nM | IL-2 release, Maximum [2]: 25.8 pg/mL | IL-6 release, EC50 [2]: 0.341 nM | IL-6 release, Maximum [2]: 71.4 pg/mL | IL-10 release, EC50 [2]: 0.335 nM | IL-10 release, Maximum [2]: 190 pg/mL | NCI-H929 killing, EC50 [2]: 0.115 nM | NCI-H929 killing, Maximum killing rate % [2]: 62% | TNF-α release, EC50 [2]: 0.224 nM | TNF-α release, Maximum [2]: 1020 pg/mL | IFN-γ release, EC50 [3]: 0.483 nM | IFN-γ release, Maximum [3]: 1020 pg/mL | IL-2 release, EC50 [3]: 2.27 nM | IL-2 release, Maximum [3]: 21.5 pg/mL | IL-6 release, EC50 [3]: 13.1 nM | IL-6 release, Maximum [3]: 245 pg/mL | IL-10 release, EC50 [3]: 0.861 nM | IL-10 release, Maximum [3]: 583 pg/mL | NCI-H929 killing, EC50 [3]: 0.16 nM | NCI-H929 killing, Maximum killing rate % [3]: 61.2% | TNF-α release, EC50 [3]: 0.464 nM | TNF-α release, Maximum [3]: 608 pg/mL | Killing EC50 (nM), PBMC + NCI-H929, + 62.5 ng/ml sBCMA [4]: 0.8 nM | Killing EC50 (nM), PBMC + NCI-H929, + 125 ng/ml sBCMA [4]: 1 nM | Killing EC50 (nM), PBMC + NCI-H929, + 250 ng/ml sBCMA [4]: 3.5 nM | Killing EC50 (nM), PBMC + NCI-H929, + 500 ng/ml sBCMA [4]: 7.7 nM | Killing EC50 (nM), PBMC + NCI-H929, no sBCMA [4]: 0.2 nM | binding result [5]: no binding | Maximum MFI [6]: 6850 MFI | Maximum MFI [7]: 1110 MFI | Killing EC50 (nM), PBMC + NCI-H929, + 10 ng/mL sBAFF [8]: 0.063 nM | Killing EC50 (nM), PBMC + NCI-H929, + 10 ng/ml sAPRIL [8]: 0.096 nM | Killing EC50 (nM), PBMC + NCI-H929, + 100 ng/mL sBAFF [8]: 0.076 nM | Killing EC50 (nM), PBMC + NCI-H929, + 100 ng/ml sAPRIL [8]: 0.253 nM | Killing EC50 (nM), PBMC + NCI-H929, no soluble ligand [8]: 0.103 nM
